Laboratory results reported in US20230272056A1 (Merck Sharp & Dohme, published 2023).

These binders were tested against T1, human LAP-TGFB1 Fc fusion (human) (assay: BLI off-rate screen).
T1 construct: also called human LAP-TGFβ1-Fc; human LAP-TGFβ-Fc isoform 1
Experimental: The Fab mutants including a positive control, 20E6 Fab, and a negative control Fab (Molecular Innovations, catalog HU-FAB-4510) were diluted to 200 nM in assay buffer and loaded to FAB2G sensors for 180 seconds followed by a one-hour incubation at room temperature in assay buffer to equilibrate the tips. The Fab loaded sensors were assessed for binding with 100 nM human LAP-TGFβ for 180 seconds followed by a 180 second dissociation phase in assay buffer on a ForteBio HTX (software version 9.0.0.66). Non-specific binding to the negative control Fab was subtracted and the binding sensorgrams were aligned to the start of the association phase on the X and Y axis. The Fab binding was fit with the 1:1 binding model, dissociation phase only, with local fitting using ForteBio Data Analysis 9.0 software.
Twenty-three variants containing a single tyrosine substitution in the light chain CDRs (at one of amino acid positions 24-31, 33, 34, 51-56, and 89-95 according to Kabat numbering scheme) and 21 similar heavy chain CDR variants (at amino acids positions 28-31, 33-35, 50-58 including 52a, 95, 96, 98, and 99 according to Kabat numbering scheme) were generated according to FIG. 1 and listed in Table 6 and their interactions with human LAP-TGFb1 were analyzed by ForteBio interferometry. […] In those sequences the VL is correct, even though these sequences are from the heavy chain. Thus, the VL_X ##Y refers to the position of the tyrosine mutation within the antibody, regardless of whether the sequence is a heavy or light chain.

T1 sequence (chain, as listed by the source limits assumed): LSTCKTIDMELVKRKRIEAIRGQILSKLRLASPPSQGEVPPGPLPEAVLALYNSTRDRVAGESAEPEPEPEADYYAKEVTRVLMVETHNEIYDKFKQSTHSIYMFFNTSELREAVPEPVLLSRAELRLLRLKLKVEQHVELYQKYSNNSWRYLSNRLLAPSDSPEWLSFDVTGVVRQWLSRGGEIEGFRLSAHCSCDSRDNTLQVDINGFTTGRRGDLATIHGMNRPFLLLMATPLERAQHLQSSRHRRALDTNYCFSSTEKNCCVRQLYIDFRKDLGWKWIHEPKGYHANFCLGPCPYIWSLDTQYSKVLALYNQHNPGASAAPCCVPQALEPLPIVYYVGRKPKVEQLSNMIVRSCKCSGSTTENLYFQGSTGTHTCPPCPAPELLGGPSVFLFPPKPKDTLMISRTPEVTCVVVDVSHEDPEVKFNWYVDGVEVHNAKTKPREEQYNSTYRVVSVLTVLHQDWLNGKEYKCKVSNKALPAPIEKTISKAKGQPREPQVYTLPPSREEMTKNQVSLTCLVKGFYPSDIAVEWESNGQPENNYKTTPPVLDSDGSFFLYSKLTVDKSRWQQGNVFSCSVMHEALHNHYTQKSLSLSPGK

Row | Binder | Binding response [nm] | binding result | Fold change [fold] | koff [s⁻¹]
1 | VH D52Y (77BIT) (Fab, V domains shown) VH: EVQLVQSGAEVKKPGASVKVSCKASGYTFTSYWMHWVRQAPGQGLEWMGRIYPQSGGIKYAQKFQGRATLTVDTSTSTAYMELSRLRSDDTAVYYCARWDYGGYFDVWGQGTLVTVSS VL: DIQMTQSPSSLSASVGDRVTITCRASQDITNYLNWYQQKPGKAVKLLIYYTSRLHSGVPSRFSGSGSGTDYTLTISSLQPEDFATYFCQQGDTLPWTFGQGTKLEIKR | 0.042 | no binding (tested: 100 nM antigen) | – | –
2 | VH G56Y (82BIT) (Fab, V domains shown) VH: EVQLVQSGAEVKKPGASVKVSCKASGYTFTSYWMHWVRQAPGQGLEWMGRIDPQSGYIKYAQKFQGRATLTVDTSTSTAYMELSRLRSDDTAVYYCARWDYGGYFDVWGQGTLVTVSS VL: DIQMTQSPSSLSASVGDRVTITCRASQDITNYLNWYQQKPGKAVKLLIYYTSRLHSGVPSRFSGSGSGTDYTLTISSLQPEDFATYFCQQGDTLPWTFGQGTKLEIKR | 0.569 | – | 1 | 0.0436
3 | VH G98Y (65BIT) (Fab, V domains shown) VH: EVQLVQSGAEVKKPGASVKVSCKASGYTFTSYWMHWVRQAPGQGLEWMGRIDPQSGGIKYAQKFQGRATLTVDTSTSTAYMELSRLRSDDTAVYYCARWDYYGYFDVWGQGTLVTVSS VL: DIQMTQSPSSLSASVGDRVTITCRASQDITNYLNWYQQKPGKAVKLLIYYTSRLHSGVPSRFSGSGSGTDYTLTISSLQPEDFATYFCQQGDTLPWTFGQGTKLEIKR | 0.037 | no binding (tested: 100 nM antigen) | – | –
4 | VH D96Y (64BIT) (Fab, V domains shown) VH: EVQLVQSGAEVKKPGASVKVSCKASGYTFTSYWMHWVRQAPGQGLEWMGRIDPQSGGIKYAQKFQGRATLTVDTSTSTAYMELSRLRSDDTAVYYCARWYYGGYFDVWGQGTLVTVSS VL: DIQMTQSPSSLSASVGDRVTITCRASQDITNYLNWYQQKPGKAVKLLIYYTSRLHSGVPSRFSGSGSGTDYTLTISSLQPEDFATYFCQQGDTLPWTFGQGTKLEIKR | 0.102 | – | 0.6 | 0.0746
5 | VH G99Y (66BIT) (Fab, V domains shown) VH: EVQLVQSGAEVKKPGASVKVSCKASGYTFTSYWMHWVRQAPGQGLEWMGRIDPQSGGIKYAQKFQGRATLTVDTSTSTAYMELSRLRSDDTAVYYCARWDYGYYFDVWGQGTLVTVSS VL: DIQMTQSPSSLSASVGDRVTITCRASQDITNYLNWYQQKPGKAVKLLIYYTSRLHSGVPSRFSGSGSGTDYTLTISSLQPEDFATYFCQQGDTLPWTFGQGTKLEIKR | 0.055 | – | 0.9 | 0.0476
6 | VH G55Y (81BIT) (Fab, V domains shown) VH: EVQLVQSGAEVKKPGASVKVSCKASGYTFTSYWMHWVRQAPGQGLEWMGRIDPQSYGIKYAQKFQGRATLTVDTSTSTAYMELSRLRSDDTAVYYCARWDYGGYFDVWGQGTLVTVSS VL: DIQMTQSPSSLSASVGDRVTITCRASQDITNYLNWYQQKPGKAVKLLIYYTSRLHSGVPSRFSGSGSGTDYTLTISSLQPEDFATYFCQQGDTLPWTFGQGTKLEIKR | 0.542 | – | 1.2 | 0.036
7 | VH F29Y (68BIT) (Fab, V domains shown) VH: EVQLVQSGAEVKKPGASVKVSCKASGYTYTSYWMHWVRQAPGQGLEWMGRIDPQSGGIKYAQKFQGRATLTVDTSTSTAYMELSRLRSDDTAVYYCARWDYGGYFDVWGQGTLVTVSS VL: DIQMTQSPSSLSASVGDRVTITCRASQDITNYLNWYQQKPGKAVKLLIYYTSRLHSGVPSRFSGSGSGTDYTLTISSLQPEDFATYFCQQGDTLPWTFGQGTKLEIKR | 0.597 | – | 1.3 | 0.0336
8 | VH H35Y (73BIT) (Fab, V domains shown) VH: EVQLVQSGAEVKKPGASVKVSCKASGYTFTSYWMYWVRQAPGQGLEWMGRIDPQSGGIKYAQKFQGRATLTVDTSTSTAYMELSRLRSDDTAVYYCARWDYGGYFDVWGQGTLVTVSS VL: DIQMTQSPSSLSASVGDRVTITCRASQDITNYLNWYQQKPGKAVKLLIYYTSRLHSGVPSRFSGSGSGTDYTLTISSLQPEDFATYFCQQGDTLPWTFGQGTKLEIKR | 0.334 | – | 0.9 | 0.0471
